In article PMC3045209:

Biological target: protein A (UniProt P38507)
Test: SPR

Substance: rabbit IgG (antibody)
- SPR angle increase: 2.1 °
